{"source": "paper PMC5705181", "about": "(Science (New York, N.Y.), 2017)", "molecules": {"B1": {"name": "PD (propanediol dehydratase, GRE Cluster 16) (Roseburia inulinivorans) (protein)", "chain": "MGNYDSTPIAKSDRIKRLVDHLYAKMPEIEAARAELITESFKATEGQPVVMRKARAFEHILKNLPIIIRPEELIVGSTTIAPRGCQTYPEFSYEWLEAEFETVETRSADPFYISEETKKRLLAADAYWKGKTTSELATSYMAPETLRAMKHNFFTPGNYFYNGVGHVTVQYETVLAIGLNGVKEKVRKEMENCHFGDADYSTKMCFLESILISCDAVITYANRYAKMAEEMAEKETDAARRQELLTIARVCKNVPEFPAESFQEACQSFWFIQQVLQIESSGHSISPGRFDQYMYPYYEKDLKEGSLTREYAQELIDCIWVKLNDLNKCRDAASAEGFAGYSLFQNLIVGGQTVQGRDATNDLSFMCITASEHVFLPMPSLSIRVWHGSSKALLMRAAELTRTGIGLPAYYNDEVIIPALVHRGATMDEARNYNIIGCVEPQVPGKTDGWHDAAFFNMCRPLEMVFSNGYDNGEIASIQTGNVESFQSFDEFMEAYRKQMLYNIELMVNADNAIDYAHAKLAPLPFESCLVDDCIKRGMSAQEGGAIYNFTGPQGFGIANVADSLYTIKKLVFEEKRITMGELKKALEMNYGKGLDATTAGDIAMQVAKGLKDAGQEVGPDVIANTIRQVLEMELPEDVRKRYEEIHEMILELPKYGNDIDEVDELAREAAYFYTRPLETFKNPRGGMYQAGLYPVSANVPLGAQTGATPDGRLAHTPVADGVGPTSGFDISGPTASCNSVAKLDHAIASNGTLFNMKMHPTAMAGEKGLESFISLIRGYFDQQGMHMQFNVVDRATLLDAQAHPEKYSGLIVRVAGYSALFTTLSKSLQDDIIKRTEQADNR"}, "B2": {"name": "t4LHypD (trans-4-hydroxy-L-proline dehydratase, GRE Cluster 15) (Clostridioides difficile) (protein)", "chain": "MARGTFERTKKLREESINAEPHISIERAVLMTEAYKKYEGSVEIPVLRALSFKHYIENRTLSINDGELIVGEKGDSPNGAPTYPEICCHTMEDLEVMHNRDIINFSVSEEARKIHKEEIIPFWKKRQTRDKIINAMTPEWLAAYEAGMFTEFMEQRAPGHTVCGDTIYKKGFLDLKKDIEARLKELDFLNDLDAYNKKADLEAMAIACDAMVILGKRYAEKARQMAEEETDEAKKKDLLLIAETCDVVPAHKPETYHQAIQMYWFVHIGVTTELNIWDAFTPGRLDQHLNPFYERDVENGILDRDRAQELLECLWVKFNNQPAPPKVGITLKESSTYTDFANINTGGINPDGQDGVNEVSYIILDVMDEMKLIQPSSNVQISKKTPQKFLKRACEISRKGWGQPAFYNTEAIVQELMEAGKTIEDARLGGTSGCVETGCFGKEAYVLTGYMNIPKILELTLNNGYDPISKKQIGIETGDPRNFQSYEELFEAFKKQLHYMIDIKIEGNAVIENICAKHMPCPLMSTIVDDCIEKGKDYQRGGARYNTRYIQGVGIGTITDSLTAIKYNVFDKKKFDMDTLLKALDANFEGYEAILNLVSNKTPKYGNDDDYADEIMQEIFNAYYNEVTGRPTVCGGEYRVDMLPTTCHIYFGEIMGASPNGRLCAKPVSEGISPEKGGDTNGPTAVIKSCAKMDHIKTGGTLLNQRFAPSVVQGEKGLDNMANLVRAYFNMDGHHIQFNVFDKNVLLEAQKNPQDYKDLIVRVAGYSDHFNNLSRTLQDEIIGRTEQTF"}}, "key": {"P5C reductase": {"molecular_target": "P5C reductase (Clostridioides difficile, UniProt Q180C5)", "test": "spectrophotometric assay", "assay_type": "biochemical", "conditions": "mere turnover"}, "purified protein [1]": {"substrate": "C[C@@H](O)CO", "test": "purified protein", "conditions": "activated by PD-AE, SAM, 5-deazariboflavin; anaerobic"}, "purified protein [2]": {"substrate": "C[C@H](O)CO", "test": "purified protein", "conditions": "activated by PD-AE, SAM, 5-deazariboflavin; anaerobic"}, "purified protein [3]": {"substrate": "O=C(O)[C@@H]1C[C@@H](O)CN1", "test": "purified protein", "assay_type": "biochemical, Clostridioides difficile", "conditions": "activated by t4LHypD-AE, SAM, acriflavine; anaerobic"}}, "data": [{"molecule": "O=C(O)[C@@H]1CCC=N1", "note": "[Δ^1-pyrroline-5-carboxylate]", "values": [{"measurement": "spectrophotometric assay", "setting": "P5C reductase; NADH as reductant in the coupled assay", "value": "P5C reductase could interconvert P5C and L-proline"}]}, {"molecule": "O=C(O)[C@@H]1CCCN1", "note": "[L-proline]", "values": [{"measurement": "spectrophotometric assay", "setting": "P5C reductase; reverse direction (interconversion with P5C)", "value": "P5C reductase could interconvert P5C and L-proline"}]}, {"molecule": "B1", "values": [{"measurement": "Km", "setting": "purified protein [1]", "value": "44 ± 4", "unit": "mM"}, {"measurement": "kcat", "setting": "purified protein [1]", "value": "330 ± 40", "unit": "s⁻¹"}, {"measurement": "Km", "setting": "purified protein [2]", "value": "8 ± 1", "unit": "mM"}, {"measurement": "kcat", "setting": "purified protein [2]", "value": "1500 ± 100", "unit": "s⁻¹"}]}, {"molecule": "B2", "values": [{"measurement": "Km", "setting": "purified protein [3]", "value": "1.2 ± 0.1", "unit": "mM"}, {"measurement": "kcat", "setting": "purified protein [3]", "value": "45 ± 1", "unit": "s⁻¹"}]}]}
